# ± gives the standard deviation of the averaged measurements.
# Key:
# Saccharomyces cerevisiae [1] = assay: protein stability index of tFT-peptide fusion (C-terminal peptide) (PSI (0-1 scale)); higher = more stable (slower turnover)
# Experimental: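 MPS profiling in S. cerevisiae of the tFT-X12 degron library: putative degron peptides plus stable controls, 12 aa, fused to the C-terminus of a sfGFP-mCherry timer. Cells are FACS-sorted into 8 mCherry/sfGFP bins and deep-sequenced. PSI runs from 0 (unstable) to 1 (stable). Backgrounds are wild type, das1Δ and doa10Δ at 30 °C, and wild type, das1Δ, cdc34-1 and cdc53-1 at 37 °C; 2-3 technical replicates each.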
# Saccharomyces cerevisiae [2] = assay: as above; details: genetic background: wild type; temperature: 30 C
# [3] = genetic background: cdc34-1, temperature: 37 C
# [4] = genetic background: cdc53-1, temperature: 37 C
# [5] = genetic background: das1 deletion, temperature: 30 C
# [6] = genetic background: das1 deletion, temperature: 37 C
# [7] = genetic background: doa10 deletion, temperature: 30 C
# [8] = genetic background: wild type, temperature: 30 C
# [9] = genetic background: wild type, temperature: 37 C
# 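Also: PSI is a weighted mean of sequencing reads over stability bins, variants kept only with over 10 reads, mCherry proximal and sfGFP distal, peptide attached via GGGS linker.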
Sequence,protein stability index (Saccharomyces cerevisiae [1]; [3]),protein stability index (Saccharomyces cerevisiae [1]; [4]),protein stability index (Saccharomyces cerevisiae [1]; [5]),protein stability index (Saccharomyces cerevisiae [1]; [6]),protein stability index (Saccharomyces cerevisiae [1]; [7]),protein stability index (Saccharomyces cerevisiae [1]; [8]),protein stability index (Saccharomyces cerevisiae [1]; [9]),protein stability index (Saccharomyces cerevisiae [2])
TLNKDILIIKCA,0.382 ± 0.023,0.42 ± 0.036,0.286 ± 0.035,0.45 ± 0.013,0.135 ± 0.022,0.175 ± 0.022,0.214 ± 0.049,0.212 ± 0.0051
TNFVVRLRFVLF,0.534 ± 0.021,0.5485 ± 0.00062,0.464 ± 0.016,0.522 ± 0.02,0.29 ± 0.015,0.295 ± 0.0087,0.419 ± 0.011,0.366 ± 0.029
TVRVVMLRLLFT,0.452 ± 0.027,0.52 ± 0.025,0.346 ± 0.035,0.528 ± 0.0076,0.309 ± 0.02,0.33 ± 0.024,0.493 ± 0.018,0.418 ± 0.021
VAFLWVAFCFSG,0.205 ± 0.0023,0.355 ± 0.044,0.224 ± 0.03,0.3883 ± 0.0035,0.178 ± 0.019,0.203 ± 0.016,0.366 ± 0.021,0.276 ± 0.046
VAIMSIWLVYML,0.349 ± 0.0086,0.465 ± 0.0057,0.341 ± 0.031,0.497 ± 0.016,0.331 ± 0.0076,0.333 ± 0.0079,0.4919 ± 0.0028,0.454 ± 0.0058
VALAVRVVVCGA,0.0316 ± 0.014,0.0354 ± 0.0067,0.122 ± 0.039,0.106 ± 0.0073,0.0887 ± 0.0097,0.108 ± 0.028,0.0779 ± 0.01,0.142 ± 0.041
VAWCVWCWWWAV,0.188 ± 0.0033,0.322 ± 0.0061,0.209 ± 0.021,0.351 ± 0.0049,0.06 ± 0.016,0.0674 ± 0.015,0.0852 ± 0.013,0.131 ± 0.047
VCLFWLFLWRIL,0.208 ± 0.018,0.167 ± 0.027,0.3 ± 0.027,0.374 ± 0.013,0.217 ± 0.014,0.182 ± 0.0051,0.241 ± 0.016,0.266 ± 0.0063
VCLWVEVLIVLG,0.0839 ± 0.023,0.205 ± 0.056,0.136 ± 0.03,0.25 ± 0.014,0.106 ± 0.031,0.129 ± 0.021,0.183 ± 0.0078,0.209 ± 0.011
VCPWGYCSEWGF,0.772 ± 0.047,0.82244 ± 0.00034,0.697 ± 0.023,0.8015 ± 0.0031,0.692 ± 0.043,0.687 ± 0.014,0.7887 ± 0.006,0.759 ± 0.013
VFCSVGVSLFFG,0.335 ± 0.014,0.496 ± 0.027,0.289 ± 0.04,0.5138 ± 0.0017,0.258 ± 0.015,0.284 ± 0.023,0.5118 ± 0.0026,0.411 ± 0.021
VFFLFAVCSVLV,0.0858 ± 0.0079,0.18 ± 0.0095,0.106 ± 0.029,0.2738 ± 0.0011,0.0641 ± 0.0032,0.0857 ± 0.033,0.248 ± 0.04,0.152 ± 0.02
VFFLRVHFWSFF,0.377 ± 0.01,0.487 ± 0.011,0.368 ± 0.029,0.53367 ± 0.00033,0.138 ± 0.015,0.168 ± 0.0092,0.246 ± 0.02,0.2826 ± 0.0026
VFFLVHFHLPMF,0.531 ± 0.053,0.57 ± 0.041,0.414 ± 0.031,0.561 ± 0.01,0.394 ± 0.0077,0.401 ± 0.019,0.536 ± 0.03,0.455 ± 0.05
VFGFLVFYVCVR,0.0903 ± 0.036,0.146 ± 0.021,0.153 ± 0.047,0.282 ± 0.014,0.135 ± 0.027,0.151 ± 0.026,0.248 ± 0.026,0.268 ± 0.0095
VFHMFGWCGGAR,0.728 ± 0.015,0.8 ± 0.0098,0.673 ± 0.012,0.77 ± 0.026,0.678 ± 0.042,0.673 ± 0.028,0.7518 ± 0.0011,0.764 ± 0.071
VFLFSLCIRLSR,0.122 ± 0.065,0.214 ± 0.0052,0.141 ± 0.031,0.289 ± 0.013,0.133 ± 0.013,0.147 ± 0.018,0.248 ± 0.011,0.204 ± 0.008
VFLVFSVWVVYR,0.2 ± 0.0081,0.304 ± 0.00039,0.233 ± 0.024,0.357 ± 0.018,0.2068 ± 0.00094,0.218 ± 0.026,0.343 ± 0.053,0.318 ± 0.027
VFLVRTVTQISA,0.289 ± 0.02,0.371 ± 0.033,0.291 ± 0.025,0.445 ± 0.015,0.219 ± 0.0079,0.254 ± 0.028,0.397 ± 0.016,0.304 ± 0.017
